# Source: the supplement of paper PMC9112550, “Optimization of the antimicrobial peptide Bac7 by deep mutational scanning” (BMC Biology, 2022)
# Tested on: Escherichia coli TOP10
# Experiment: shrunken log2 fold change of peptide-encoding DNA abundance (4.5 h post-induction vs induction); higher = less antimicrobial activity (less host growth inhibition)
# Details: time post-induction: 4.5 h; library: site-saturation at positions 5, 18, 19, 20
# 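Note: peptides expressed intracellularly from a pBAD plasmid library in pooled LB shake-flask culture, induced with 0.3% L-arabinose, DNA abundance read by NGS, three biological replicates, DESeq2 with apeglm shrinkage.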
row,Sequence,shrunken log2 fold change
1,RRIRIRPPRLPRPRPRPAHQPRP,-0.0564
2,RRIRGRPPRLPRPRPRPQCQPRP,0.316
3,RRIRQRPPRLPRPRPRPQIIPRP,-0.0763
4,RRIRHRPPRLPRPRPRPCHKPRP,-0.0933
5,RRIRKRPPRLPRPRPRPMQSPRP,0.995
6,RRIRWRPPRLPRPRPRPIHMPRP,-0.246
7,RRIRERPPRLPRPRPRPFPLPRP,-0.134
8,RRIRFRPPRLPRPRPRPGCKPRP,-0.222
9,RRIRFRPPRLPRPRPRPDQNPRP,-0.203
10,RRIRRRPPRLPRPRPRPGRLPRP,0.728
11,RRIRFRPPRLPRPRPRPGGEPRP,0.271
12,RRIRKRPPRLPRPRPRPHEPPRP,0.0467
13,RRIRRRPPRLPRPRPRPITSPRP,-0.00199
14,RRIRFRPPRLPRPRPRPWWKPRP,0.0472
15,RRIRVRPPRLPRPRPRPRRGPRP,0.579
16,RRIRCRPPRLPRPRPRPHTFPRP,-0.467
17,RRIRTRPPRLPRPRPRPDRTPRP,-0.442
18,RRIRRRPPRLPRPRPRPRDMPRP,0.186
19,RRIRWRPPRLPRPRPRPQCQPRP,0.129
20,RRIRLRPPRLPRPRPRPPNIPRP,-0.346
21,RRIRFRPPRLPRPRPRPVVLPRP,0.0119
22,RRIRVRPPRLPRPRPRPVGTPRP,-0.0358
23,RRIRKRPPRLPRPRPRPTPWPRP,0.798
24,RRIRIRPPRLPRPRPRPWVMPRP,-0.152
25,RRIRARPPRLPRPRPRPDSGPRP,0.18

row,Sequence,shrunken log2 fold change
1,RRIRSRPPRLPRPRPRPWMDPRP,-0.0373
2,RRIRERPPRLPRPRPRPQRLPRP,0.202
3,RRIRWRPPRLPRPRPRPKSNPRP,-0.164
4,RRIRVRPPRLPRPRPRPDFDPRP,0.0753
5,RRIRIRPPRLPRPRPRPKMMPRP,-0.596
6,RRIRHRPPRLPRPRPRPFTKPRP,0.009
7,RRIRKRPPRLPRPRPRPLNSPRP,0.00355
8,RRIRGRPPRLPRPRPRPGRAPRP,0.84
9,RRIRMRPPRLPRPRPRPIIQPRP,-0.402
10,RRIRVRPPRLPRPRPRPCLRPRP,-0.146
11,RRIRWRPPRLPRPRPRPRHIPRP,-0.0148
12,RRIRNRPPRLPRPRPRPKVVPRP,0.0279
13,RRIRKRPPRLPRPRPRPQWGPRP,0.227
14,RRIRGRPPRLPRPRPRPDPAPRP,1.06
15,RRIRPRPPRLPRPRPRPLRHPRP,0.21
16,RRIRLRPPRLPRPRPRPIKYPRP,0.0258
17,RRIRNRPPRLPRPRPRPCVLPRP,-0.202
18,RRIRKRPPRLPRPRPRPMPEPRP,-0.0371
19,RRIRKRPPRLPRPRPRPGAKPRP,1.16
20,RRIRRRPPRLPRPRPRPIWKPRP,-0.184
21,RRIRKRPPRLPRPRPRPMMYPRP,-0.00208
22,RRIRPRPPRLPRPRPRPAKNPRP,0.235
23,RRIRFRPPRLPRPRPRPEWVPRP,-0.0753
24,RRIRSRPPRLPRPRPRPPETPRP,0.103
25,RRIRGRPPRLPRPRPRPWPQPRP,0.498

row,Sequence,shrunken log2 fold change
1,RRIRMRPPRLPRPRPRPVDNPRP,0.113
2,RRIRFRPPRLPRPRPRPIDRPRP,-0.0144
3,RRIRHRPPRLPRPRPRPRECPRP,0.0559
4,RRIRHRPPRLPRPRPRPMLNPRP,-0.114
5,RRIRSRPPRLPRPRPRPVIAPRP,0.053
6,RRIRNRPPRLPRPRPRPKMQPRP,-0.0708
7,RRIRSRPPRLPRPRPRPMILPRP,0.0266
8,RRIRTRPPRLPRPRPRPAKVPRP,-0.29
9,RRIRLRPPRLPRPRPRPSENPRP,0.124
10,RRIRVRPPRLPRPRPRPTEAPRP,0.0175
11,RRIRMRPPRLPRPRPRPLGLPRP,0.717
12,RRIRTRPPRLPRPRPRPGQIPRP,0.0034
13,RRIRIRPPRLPRPRPRPSVTPRP,-0.781
14,RRIRARPPRLPRPRPRPDVWPRP,0.342
15,RRIRLRPPRLPRPRPRPENMPRP,-0.4
16,RRIRSRPPRLPRPRPRPKLCPRP,0.0502
17,RRIRGRPPRLPRPRPRPYLKPRP,-0.0688
18,RRIRLRPPRLPRPRPRPLRHPRP,0.171
19,RRIRGRPPRLPRPRPRPVDRPRP,0.297
20,RRIRFRPPRLPRPRPRPPSSPRP,0.208
21,RRIRRRPPRLPRPRPRPGVQPRP,-0.00257
22,RRIRDRPPRLPRPRPRPQPLPRP,0.194
23,RRIRGRPPRLPRPRPRPNVVPRP,0.0631
24,RRIRIRPPRLPRPRPRPRMGPRP,-0.192
25,RRIRCRPPRLPRPRPRPLKFPRP,-0.162

row,Sequence,shrunken log2 fold change
1,RRIRYRPPRLPRPRPRPYKSPRP,0.0233
2,RRIRKRPPRLPRPRPRPHMNPRP,-0.295
3,RRIRQRPPRLPRPRPRPYGMPRP,-0.549
4,RRIRFRPPRLPRPRPRPYCTPRP,-0.873
5,RRIRDRPPRLPRPRPRPIGWPRP,-0.0185
6,RRIRCRPPRLPRPRPRPGQFPRP,-0.564
7,RRIRKRPPRLPRPRPRPWKIPRP,-0.00192
8,RRIRPRPPRLPRPRPRPEPDPRP,0.537
9,RRIRVRPPRLPRPRPRPVFHPRP,-0.213
10,RRIRTRPPRLPRPRPRPLAQPRP,0.143
11,RRIRARPPRLPRPRPRPKAIPRP,0.496
12,RRIRVRPPRLPRPRPRPPWLPRP,0.365
13,RRIRNRPPRLPRPRPRPEQGPRP,0.111
14,RRIRIRPPRLPRPRPRPSHVPRP,-0.523
15,RRIRFRPPRLPRPRPRPTEKPRP,-0.0949
16,RRIRPRPPRLPRPRPRPENRPRP,0.0972
17,RRIRVRPPRLPRPRPRPMALPRP,-0.169
18,RRIRIRPPRLPRPRPRPHHTPRP,-0.677
19,RRIRFRPPRLPRPRPRPHAWPRP,-0.126
20,RRIRMRPPRLPRPRPRPGCIPRP,0.0871
21,RRIRMRPPRLPRPRPRPVQHPRP,0.415
22,RRIRGRPPRLPRPRPRPDHQPRP,0.12
23,RRIRDRPPRLPRPRPRPNLQPRP,-0.71
24,RRIRIRPPRLPRPRPRPMDFPRP,0.00128
25,RRIRPRPPRLPRPRPRPERRPRP,0.158

row,Sequence,shrunken log2 fold change
1,RRIRERPPRLPRPRPRPTDCPRP,-0.399
2,RRIRLRPPRLPRPRPRPKMQPRP,0.282
3,RRIRARPPRLPRPRPRPGYYPRP,-0.254
4,RRIRFRPPRLPRPRPRPLEHPRP,0.0403
5,RRIRVRPPRLPRPRPRPIYHPRP,-0.461
6,RRIRNRPPRLPRPRPRPDQNPRP,-0.017
7,RRIRVRPPRLPRPRPRPYANPRP,0.0231
8,RRIRYRPPRLPRPRPRPKRDPRP,-0.0103
9,RRIRRRPPRLPRPRPRPFGKPRP,0.0788
10,RRIRKRPPRLPRPRPRPELKPRP,0.978
11,RRIRERPPRLPRPRPRPSNRPRP,-0.209
12,RRIRIRPPRLPRPRPRPYKKPRP,-0.0756
13,RRIRCRPPRLPRPRPRPYDYPRP,-0.27
14,RRIRKRPPRLPRPRPRPGSKPRP,-0.0334
15,RRIRVRPPRLPRPRPRPSNGPRP,-0.219
16,RRIRNRPPRLPRPRPRPSACPRP,-0.0258
17,RRIRPRPPRLPRPRPRPPYWPRP,-0.123
18,RRIRVRPPRLPRPRPRPWCMPRP,-0.468
19,RRIRKRPPRLPRPRPRPHMVPRP,-0.33
20,RRIRCRPPRLPRPRPRPWAFPRP,-0.0432
21,RRIRQRPPRLPRPRPRPQNPPRP,-0.0336
22,RRIRKRPPRLPRPRPRPCLNPRP,0.00932
23,RRIRQRPPRLPRPRPRPVRQPRP,0.0135
24,RRIRRRPPRLPRPRPRPARTPRP,0.35
25,RRIRKRPPRLPRPRPRPRNTPRP,-0.0381

row,Sequence,shrunken log2 fold change
1,RRIRCRPPRLPRPRPRPTHKPRP,0.298
2,RRIRTRPPRLPRPRPRPVFPPRP,-0.339
3,RRIRVRPPRLPRPRPRPTICPRP,-0.604
4,RRIRARPPRLPRPRPRPEEKPRP,1.22
5,RRIRPRPPRLPRPRPRPTRSPRP,0.365
6,RRIRVRPPRLPRPRPRPHLTPRP,-0.333
7,RRIRNRPPRLPRPRPRPIYVPRP,-0.892
8,RRIRLRPPRLPRPRPRPPANPRP,0.592
9,RRIRHRPPRLPRPRPRPESEPRP,-0.00193
10,RRIRMRPPRLPRPRPRPMPHPRP,0.161
11,RRIRPRPPRLPRPRPRPFCVPRP,0.156
12,RRIRVRPPRLPRPRPRPFGWPRP,0.372
13,RRIRHRPPRLPRPRPRPPARPRP,1.66
14,RRIRGRPPRLPRPRPRPHPSPRP,0.445
15,RRIRWRPPRLPRPRPRPHILPRP,-0.358
16,RRIRHRPPRLPRPRPRPGGCPRP,0.165
17,RRIRTRPPRLPRPRPRPFVFPRP,-0.295
18,RRIRFRPPRLPRPRPRPQECPRP,0.0519
19,RRIRMRPPRLPRPRPRPAPRPRP,1.72
20,RRIRHRPPRLPRPRPRPCTYPRP,-0.634
21,RRIRYRPPRLPRPRPRPRKSPRP,0.117
22,RRIRKRPPRLPRPRPRPTEIPRP,0.162
23,RRIRTRPPRLPRPRPRPIDKPRP,-0.175
24,RRIRLRPPRLPRPRPRPMDAPRP,0.282
25,RRIRHRPPRLPRPRPRPWAPPRP,-0.251
